Experimental findings from article PMC3866925, “Functional characterization of two members of histidine phosphatase superfamily in Mycobacterium tuberculosis” (BMC Microbiology, 2013) are described below.

This data set deals with the molecule itself. Kind of data set: SEC.

By stoichiometry N is commonly meant the number of molecules, sites or subunits per partner or assembly.

B1: C-His-Rv2135c (enzyme)
chain: MTVILLRHARSTSNTAGVLAGRSGVDLDEKGREQATGLIDRIGDLPIRAVASSPMLRCQRTVEPLAEALCLEPLIDDRFSEVDYGEWTGRKIGDLVDEPLWRVVQAHPSAAVFPGGEGLAQVQTRAVAAVREHDRRLADQHGHDVLWLACTHGDVIKAVIADAFGMHLDSFQRITADPGSVSVVRYTQLRPFVLHVNHTGARLAPALQAAASAQGASPEPNAAVPPGDAVIGGSTD
notes: also called C-His-Rv2315c; not shown: His6, C-terminal, kept
As for B1, the “stoichiometry N” value came to 4.

B2: C-His-Rv0489 (enzyme)
chain: MANTGSLVLLRHGESDWNALNLFTGWVDVGLTDKGQAEAVRSGELIAEHDLLPDVLYTSLLRRAITTAHLALDSADRLWIPVRRSWRLNERHYGALQGLDKAETKARYGEEQFMAWRRSYDTPPPPIERGSQFSQDADPRYADIGGGPLTECLADVVARFLPYFTDVIVGDLRVGKTVLIVAHGNSLRALVKHLDQMSDDEIVGLNIPTGIPLRYDLDSAMRPLVRGGTYLDPEAAAAGAAAVAGQGRG
notes: also called C-His-Rv0489c; cofactor dependent phosphoglycerate mutase of M. tuberculosis; not shown: His6, C-terminal, kept
On to B2, for which the “stoichiometry N” value was found to be 2.
